Source: US20030027165A1 (published 2003)
Each block holds one binder with its values, some of them ahead of it.

Assays:
[1] = biological target: T1, pol κ76, 76-kDa alternatively spliced isoform of DNA polymerase κ (human, UniProt Q9UBT6 1-870); assay: yeast two-hybrid
T1 construct: 672-residue open reading frame (GenBank AF315602), cloned by RT-PCR from human foreskin RNA with ON-DIN5'm and ON-DIN-THc; It was inserted BamHI/SalI into FLAG-modified pGBT9 and pGAD424; also called 76-kDa pol κ isoform; not shown: N-terminal yeast two-hybrid fusion part from the FLAG-modified pGBT9 or pGAD424 vector (Clontech) plus FLAG peptide; No
T1 sequence: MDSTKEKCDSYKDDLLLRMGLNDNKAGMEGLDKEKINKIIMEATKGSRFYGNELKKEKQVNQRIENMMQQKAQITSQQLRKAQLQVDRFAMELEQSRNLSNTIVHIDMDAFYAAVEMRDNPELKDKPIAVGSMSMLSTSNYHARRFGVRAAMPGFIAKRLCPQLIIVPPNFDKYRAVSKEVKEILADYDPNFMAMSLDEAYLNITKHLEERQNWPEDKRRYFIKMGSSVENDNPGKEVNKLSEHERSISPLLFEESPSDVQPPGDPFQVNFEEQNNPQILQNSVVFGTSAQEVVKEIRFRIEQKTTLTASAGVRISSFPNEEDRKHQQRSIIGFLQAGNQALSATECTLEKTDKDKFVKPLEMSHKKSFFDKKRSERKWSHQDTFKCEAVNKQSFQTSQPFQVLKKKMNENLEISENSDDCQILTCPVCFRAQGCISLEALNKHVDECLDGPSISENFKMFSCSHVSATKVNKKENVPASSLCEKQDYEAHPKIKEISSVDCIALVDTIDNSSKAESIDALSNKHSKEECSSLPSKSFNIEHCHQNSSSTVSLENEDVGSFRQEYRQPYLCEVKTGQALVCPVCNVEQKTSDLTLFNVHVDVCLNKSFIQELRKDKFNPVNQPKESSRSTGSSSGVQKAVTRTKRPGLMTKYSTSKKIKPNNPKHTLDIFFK

[2] = biological target: T2, pol κ, DNA polymerase κ, the primary protein product of POLK (human, UniProt Q9UBT6 1-870); assay: yeast two-hybrid
T2 construct: not shown: N-terminal yeast two-hybrid fusion part from the FLAG-modified pGBT9 or pGAD424 vector (Clontech) plus FLAG peptide; No
T2 sequence (looked up): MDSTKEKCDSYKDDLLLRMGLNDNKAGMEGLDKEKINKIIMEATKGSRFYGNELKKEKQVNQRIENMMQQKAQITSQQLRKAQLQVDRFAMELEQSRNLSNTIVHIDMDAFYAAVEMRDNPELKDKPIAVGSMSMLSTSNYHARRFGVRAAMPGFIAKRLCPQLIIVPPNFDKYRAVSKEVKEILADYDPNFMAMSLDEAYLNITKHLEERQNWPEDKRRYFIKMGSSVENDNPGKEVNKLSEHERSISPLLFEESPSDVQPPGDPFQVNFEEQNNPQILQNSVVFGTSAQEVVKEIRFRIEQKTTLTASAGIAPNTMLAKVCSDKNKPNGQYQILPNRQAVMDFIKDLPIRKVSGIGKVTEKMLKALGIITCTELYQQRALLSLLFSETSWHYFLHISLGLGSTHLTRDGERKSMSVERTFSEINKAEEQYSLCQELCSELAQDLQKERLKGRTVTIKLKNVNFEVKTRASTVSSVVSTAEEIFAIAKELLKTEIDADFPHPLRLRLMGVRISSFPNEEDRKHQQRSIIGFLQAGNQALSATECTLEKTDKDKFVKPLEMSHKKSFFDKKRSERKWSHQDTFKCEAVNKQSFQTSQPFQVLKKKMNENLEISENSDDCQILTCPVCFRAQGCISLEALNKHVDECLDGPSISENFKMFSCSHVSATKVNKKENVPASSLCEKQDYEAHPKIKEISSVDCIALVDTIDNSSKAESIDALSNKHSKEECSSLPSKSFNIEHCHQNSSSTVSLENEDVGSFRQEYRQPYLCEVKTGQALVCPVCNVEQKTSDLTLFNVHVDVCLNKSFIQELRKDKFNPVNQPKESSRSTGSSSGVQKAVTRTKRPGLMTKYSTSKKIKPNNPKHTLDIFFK

binding result [1]: no binding
binding result [2]: no binding
B1: GPBPΔ26, alternatively spliced GPBP variant deleted for 26 amino acid residues (enzyme)
chain: MSDNQSWNSSGSEEDPETESGPPVERCGVLSKWTNYIHGWQDRWVVLKNNALSYYKSEDETEYGCRGSICLSKAVITPHDFDECRFDISVNDSVWYLRAQDPDHRQQWIDAIEQHKTESGYGSESSLRRHGSMVSLVSGASGYSATSTSSFKKGHSLREKLAEMETFRDILCRQVDTLQKYFDACADAVSKDELQRDKVVEDDEDDFPTTRSDGDFLHSTNGNKEKLFPHVTPKGINGIDFKGEAITFKATTAGILATLSHCIELMVKREDSWQKRLDKETEKKRRTEEAYKNAMTELKKKSHFGGPDYEEGPNSLINEEEFFDAVEAALDRQDKIEEQSQSEKVRLHWPTSLPSGDAFSSVGTHRFVQKVEEMVQNHMTYSLQDVGGDANWQLVVEEGEMKVYRREVEENGIVLDPLKATHAVKGVTGHEVCNYFWNVDVRNDWETTIENFHVVETLADNAIIIYQTHKRVWPASQRDVLYLSVIRKIPALTENDPETWIVCNFSVDHDSAPLNNRCVRAKINVAMICQTLVSPPEGNQEISRDNILCKITYVANVNPGGWAPASVLRAVAKREYPKFLKRFTSYVQEKTAGKPILF
notes: The two-hybrid construct is not described; also called GPBP?26; GPBPD26

binding result [1]: no binding
binding result [2]: no binding
B2: Goodpasture antigen binding protein (GPBP) (enzyme, human, UniProt Q9Y5P4 1-624, looked up)
chain: MSDNQSWNSSGSEEDPETESGPPVERCGVLSKWTNYIHGWQDRWVVLKNNALSYYKSEDETEYGCRGSICLSKAVITPHDFDECRFDISVNDSVWYLRAQDPDHRQQWIDAIEQHKTESGYGSESSLRRHGSMVSLVSGASGYSATSTSSFKKGHSLREKLAEMETFRDILCRQVDTLQKYFDACADAVSKDELQRDKVVEDDEDDFPTTRSDGDFLHSTNGNKEKLFPHVTPKGINGIDFKGEAITFKATTAGILATLSHCIELMVKREDSWQKRLDKETEKKRRTEEAYKNAMTELKKKSHFGGPDYEEGPNSLINEEEFFDAVEAALDRQDKIEEQSQSEKVRLHWPTSLPSGDAFSSVGTHRFVQKPYSRSSSMSSIDLVSASDDVHRFSSQVEEMVQNHMTYSLQDVGGDANWQLVVEEGEMKVYRREVEENGIVLDPLKATHAVKGVTGHEVCNYFWNVDVRNDWETTIENFHVVETLADNAIIIYQTHKRVWPASQRDVLYLSVIRKIPALTENDPETWIVCNFSVDHDSAPLNNRCVRAKINVAMICQTLVSPPEGNQEISRDNILCKITYVANVNPGGWAPASVLRAVAKREYPKFLKRFTSYVQEKTAGKPILF
